Test results from patent US20230295335A1.

Experiments:
[1] = biological target: neonatal Fc receptor (FcRn), His-tagged (SinoBiological, cat. no. CT009-H08H-B) (UniProt P55899); assay: SPR kinetics assay at pH 6.0; His-tagged FcRn captured on anti-His chip, antibody 0-100 nM
[2] = biological target: neonatal Fc receptor (FcRn), His-tagged (SinoBiological, cat. no. CT009-H08H-B) (UniProt P55899); assay: SPR kinetics assay at pH 6.0; His-tagged FcRn captured on anti-His chip, antibody 0-100 nM; mean of three experiments

Chain of neonatal Fc receptor (FcRn), His-tagged (SinoBiological, cat. no. CT009-H08H-B) (P55899 24-297 limits assumed, form in doubt): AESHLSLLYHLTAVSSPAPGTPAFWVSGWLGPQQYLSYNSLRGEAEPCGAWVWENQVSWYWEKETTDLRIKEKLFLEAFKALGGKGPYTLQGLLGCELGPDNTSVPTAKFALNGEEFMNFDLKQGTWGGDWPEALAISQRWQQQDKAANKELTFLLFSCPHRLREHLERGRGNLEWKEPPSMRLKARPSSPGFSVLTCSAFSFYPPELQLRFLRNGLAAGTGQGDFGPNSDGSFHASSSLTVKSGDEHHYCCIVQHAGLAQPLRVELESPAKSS

With IgG1-b12 (antibody) the koff [1] was 0.0322 s⁻¹, the kon [1] was 1.1e+06 M⁻¹ s⁻¹ and the Kd [2] was 29 nM.
